Test results as given in US20220153832A1 (PIONYR IMMUNOTHERAPEUTICS, published 2022).
Where a chain is given by its changes, count along the chain named.

Legend:
[1] = biological target: T1, Cynomolgus MARCO, full length, on cells (cynomolgus, UniProt A0A2K5X0Z2 1-519); test: flow cytometry, 293T CyMARCO cells
T1 construct: whole, on cells; also called cyno MARCO; CyMARCO
T1 sequence: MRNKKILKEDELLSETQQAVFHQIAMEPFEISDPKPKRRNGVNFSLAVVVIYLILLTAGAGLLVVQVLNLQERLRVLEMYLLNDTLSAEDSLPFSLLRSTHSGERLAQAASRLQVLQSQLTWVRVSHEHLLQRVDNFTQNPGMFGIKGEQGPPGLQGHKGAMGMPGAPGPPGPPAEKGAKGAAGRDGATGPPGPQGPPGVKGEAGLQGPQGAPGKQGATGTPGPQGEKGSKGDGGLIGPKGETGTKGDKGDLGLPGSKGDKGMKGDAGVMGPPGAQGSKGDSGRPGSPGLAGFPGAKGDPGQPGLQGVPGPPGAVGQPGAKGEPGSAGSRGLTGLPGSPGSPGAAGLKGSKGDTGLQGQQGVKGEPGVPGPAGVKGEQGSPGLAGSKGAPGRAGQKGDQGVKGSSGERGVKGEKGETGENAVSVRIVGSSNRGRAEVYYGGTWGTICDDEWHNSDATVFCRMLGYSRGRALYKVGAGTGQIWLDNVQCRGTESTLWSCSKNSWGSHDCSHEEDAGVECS
In short: (§1)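 HEK293T cells expressing human or cynomolgus MARCO were tested for antibody binding by flow cytometry. At 100,000 cells/well, Zombie NIR-stained cells received an 8-point three-fold dilution of antibody from 100 nM in D-PBS/2% FBS/2 mM EDTA for 1 hr on ice, then APC goat anti-mouse IgG for 30 min on ice. Geometric mean fluorescence intensities were analysed in FlowJo and Prism.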

[2] = biological target: T2, Human Macrophage Receptor with Collagenous Structure (MARCO), full length, on cells (human, UniProt Q9UEW3 1-520); test: flow cytometry, 293T HuMARCO cells
T2 construct: the cell type is named under assay; also called huMARCO; HuMARCO
T2 sequence: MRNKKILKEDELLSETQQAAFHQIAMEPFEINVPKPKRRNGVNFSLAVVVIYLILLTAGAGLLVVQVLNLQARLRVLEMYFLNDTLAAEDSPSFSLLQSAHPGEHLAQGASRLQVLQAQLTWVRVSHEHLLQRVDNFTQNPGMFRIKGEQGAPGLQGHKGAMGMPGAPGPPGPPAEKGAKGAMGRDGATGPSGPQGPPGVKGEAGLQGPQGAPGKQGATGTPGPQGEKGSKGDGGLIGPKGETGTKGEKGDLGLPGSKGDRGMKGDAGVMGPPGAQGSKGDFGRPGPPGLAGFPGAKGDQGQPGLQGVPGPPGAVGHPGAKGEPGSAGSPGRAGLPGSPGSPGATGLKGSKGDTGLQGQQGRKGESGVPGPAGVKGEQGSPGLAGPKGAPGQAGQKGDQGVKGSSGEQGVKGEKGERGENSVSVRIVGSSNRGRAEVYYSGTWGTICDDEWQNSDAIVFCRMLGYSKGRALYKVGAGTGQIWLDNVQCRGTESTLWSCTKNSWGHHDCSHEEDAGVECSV
In short: as §1

hVar3 (RG3036) [3] = biological target: T3, hVar3 (RG3036) (human, UniProt Q9UEW3 147-520); test: ELISA on recombinant hVar3 protein, A450
T3 construct: Human MARCO His-CLD-SRCR with Q452D, Y472S and K473S (already in the entry); also called recombinant human SRCR MARCO hVar3 protein

[4] = biological target: T4, recombinant cynomolgus MARCO protein (cynomolgus, UniProt A0A2K5X0Z2 65-519); test: Biacore (SPR), recombinant cyno MARCO
T4 construct: Construct not described; also called cyno MARCO; cynoMARCO
T4 sequence: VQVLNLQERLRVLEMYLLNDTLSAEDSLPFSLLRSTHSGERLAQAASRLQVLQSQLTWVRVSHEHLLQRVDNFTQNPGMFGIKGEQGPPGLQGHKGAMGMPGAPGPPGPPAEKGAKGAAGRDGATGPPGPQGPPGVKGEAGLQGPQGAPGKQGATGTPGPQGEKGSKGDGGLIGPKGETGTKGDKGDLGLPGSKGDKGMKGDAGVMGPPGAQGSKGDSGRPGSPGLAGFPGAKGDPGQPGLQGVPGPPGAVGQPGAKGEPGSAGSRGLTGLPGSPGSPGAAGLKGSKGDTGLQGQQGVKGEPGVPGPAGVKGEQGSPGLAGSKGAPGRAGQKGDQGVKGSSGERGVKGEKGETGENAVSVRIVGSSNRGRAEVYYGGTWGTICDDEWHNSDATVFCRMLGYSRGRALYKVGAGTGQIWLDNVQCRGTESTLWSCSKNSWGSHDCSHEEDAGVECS

[5] = biological target: T5, N-terminally polyhistidine tagged human MARCO ECD (147-520), recombinant (human, UniProt Q9UEW3 147-520); test: Biacore (SPR), recombinant human MARCO
T5 construct: also called PI-RG-3000; recombinant human MARCO; not shown: N-terminal polyhistidine tag
T5 sequence: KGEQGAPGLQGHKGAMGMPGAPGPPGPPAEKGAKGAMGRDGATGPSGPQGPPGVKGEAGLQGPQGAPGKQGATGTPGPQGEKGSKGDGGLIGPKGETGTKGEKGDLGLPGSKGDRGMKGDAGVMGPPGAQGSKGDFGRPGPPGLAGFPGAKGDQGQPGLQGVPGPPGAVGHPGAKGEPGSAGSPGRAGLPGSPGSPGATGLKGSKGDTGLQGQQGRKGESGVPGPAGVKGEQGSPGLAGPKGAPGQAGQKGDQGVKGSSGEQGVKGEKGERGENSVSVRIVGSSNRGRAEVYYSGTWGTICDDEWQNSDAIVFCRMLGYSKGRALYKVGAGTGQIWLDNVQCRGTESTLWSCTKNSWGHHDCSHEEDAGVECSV
In short: (§2)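 Binding kinetics and affinity of antibodies for the N-terminally His-tagged human MARCO extracellular domain (147-520) were determined by surface plasmon resonance with multi-cycle kinetics on a Biacore T200. The antibodies were captured on a CM4 chip carrying amine-coupled anti-mouse Fc mAb (4500 RU target), and the runs were done at 25° C in 10 mM HEPES pH 7.4, 150 mM NaCl, 3 mM EDTA, 0.05% surfactant P20. The analyte was injected at 0.625–10 nM with 90 s association and 600 s dissociation, and the constants were fitted in BIAevaluation 3.1.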

[6] = biological target: T5, N-terminally polyhistidine tagged human …; test: Biacore (SPR), binding affinity to human MARCO
In short: as §2

[7] = biological target: T2, Human Macrophage Receptor with …; test: flow cytometry, cells overexpressing human MARCO; hu (first of hu/cyn)
[8] = biological target: T1, Cynomolgus MARCO, full length, on cells; test: flow cytometry, cells overexpressing cyno MARCO; cyn (second of hu/cyn)
hVar3 (RG3036) [9] = biological target: T3, hVar3 (RG3036); test: ELISA on hVar3

B1: PI-HX-3001 (antibody, rat IgG2a, V domains shown)
VH: EVQLVESGGGLVKPGASLKLSCVASGFTFSDYWMNWVRQTPGKTMEWIGDIKDDGSYTNYTPSLKNRFTISRDNAKSTLYLQMNNVRSEDTGTYYCTSGGVFDYWGQGVMVTVSS
VL: EIVLTQSPTTMAASPGEMVTITCRASSSVNYMHWFQQKSGTSPKPWIYDTSKLASGVPDRFSGSGSGTSYSLTISSMEAEDAASYYCLQRSTFPPTFGAGTKLELK
notes: Rat IgG2a hybridoma antibody; also called PI-3006 (name of the recombinant form)
binding result [1]: no binding | binding result [2]: no binding

B2: PI-3019-AB (antibody, mouse IgG2a, kappa)
heavy: EVQLVESGGGLVQPGSSLKLSCVASKFTFSNYGMNWIRQAPKKGLEWIALIYYNSNNKYYADSVKGRFTISRDNSKNTLYLEMNSLRSEDTAMYYCAKSLTGGSDYFDSWGQGVMVTVSSAKTTAPSVYPLAPVCGDTTGSSVTLGCLVKGYFPEPVTLTWNSGSLSSGVHTFPAVLQSDLYTLSSSVTVTSSTWPSQSITCNVAHPASSTKVDKKIEPRGPTIKPCPPCKCPAPNLLGGPSVFIFPPKIKDVLMISLSPIVTCVVVDVSEDDPDVQISWFVNNVEVHTAQTQTHREDYNSTLRVVSALPIQHQDWMSGKEFKCKVNNKDLPAPIERTISKPKGSVRAPQVYVLPPPEEEMTKKQVTLTCMVTDFMPEDIYVEWTNNGKTELNYKNTEPVLDSDGSYFMYSKLRVEKKNWVERNSYSCSVVHEGLHNHHTTKSFSRTPGK
light: DVQMTQSPSYLAASPGESVSISCKASKSIGTFLAWYQEKPEKTNKLLIYSGSTLQSGTPSRFSGSGSGTDFTLTIRNLEPEDFAVYYCQQHDEYPFTFGSGTKLEIKRADAAPTVSIFPPSSEQLTSGGASVVCFLNNFYPKDINVKWKIDGSERQNGVLNSWTDQDSKDSTYSMSSTLTLTKDEYERHNSYTCEATHKTSTSPIVKSFNRNEC
binding result (hVar3 (RG3036) [3]): binds

B3: PI-3046-AB (antibody, human IgG4 S228P, kappa)
heavy: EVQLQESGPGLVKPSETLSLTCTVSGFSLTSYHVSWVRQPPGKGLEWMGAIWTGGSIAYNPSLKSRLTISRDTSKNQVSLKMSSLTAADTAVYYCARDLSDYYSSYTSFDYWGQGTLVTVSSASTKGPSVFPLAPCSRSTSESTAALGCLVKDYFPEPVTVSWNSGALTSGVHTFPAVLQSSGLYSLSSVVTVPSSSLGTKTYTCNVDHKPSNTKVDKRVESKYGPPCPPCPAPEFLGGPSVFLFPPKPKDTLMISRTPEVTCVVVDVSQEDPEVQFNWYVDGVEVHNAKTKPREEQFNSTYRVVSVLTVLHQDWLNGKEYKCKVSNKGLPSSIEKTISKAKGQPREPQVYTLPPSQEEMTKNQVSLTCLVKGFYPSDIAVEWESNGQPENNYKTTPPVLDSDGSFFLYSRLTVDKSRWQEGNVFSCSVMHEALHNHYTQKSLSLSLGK
light: DIQMTQSPSSLSASVGDRVTITCRASEGISNDLAWYQQKPGKAPKLLIYAASRLQSGVPSRFSGSGSGTDYTLTISSMQPEDFATYYCQQSYKYPLTFGQGTKLEIKRTVAAPSVFIFPPSDEQLKSGTASVVCLLNNFYPREAKVQWKVDNALQSGNSQESVTEQDSKDSTYSLSSTLTLSKADYEKHKVYACEVTHQGLSSPVTKSFNRGEC
Kd [4]: 1.1 nM | Kd [5]: 0.78 nM | koff [5]: 0.000371 s⁻¹ | Kd [6]: 0.78 nM | EC50 [7]: 0.821 nM | EC50 [8]: 1.07 nM

B4: PI-3047-AB (antibody, human IgG4 S228P, kappa)
heavy: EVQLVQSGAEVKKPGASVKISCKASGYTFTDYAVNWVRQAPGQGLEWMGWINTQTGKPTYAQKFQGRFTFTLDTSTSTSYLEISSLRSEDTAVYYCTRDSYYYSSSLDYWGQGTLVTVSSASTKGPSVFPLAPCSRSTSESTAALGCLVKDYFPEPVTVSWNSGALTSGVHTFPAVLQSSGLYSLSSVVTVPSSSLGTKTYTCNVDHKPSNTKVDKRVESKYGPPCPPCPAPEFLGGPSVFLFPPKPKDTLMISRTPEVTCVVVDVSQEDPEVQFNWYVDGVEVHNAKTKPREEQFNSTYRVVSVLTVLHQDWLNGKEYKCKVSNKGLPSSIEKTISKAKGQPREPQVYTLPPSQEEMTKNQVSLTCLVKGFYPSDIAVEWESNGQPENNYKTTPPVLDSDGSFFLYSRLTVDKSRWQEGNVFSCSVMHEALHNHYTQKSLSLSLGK
light: B3 light with E27A, S56D, Y71F, L96W
notes: Humanized PI-HX-3011, hIgG4
Kd [4]: 0.79 nM | Kd [5]: 0.72 nM | koff [5]: 0.000337 s⁻¹ | Kd [6]: 0.72 nM | EC50 [7]: 0.796 nM | EC50 [8]: 1.39 nM

B5: PI-3048-AB (antibody, human IgG4 S228P, kappa)
heavy: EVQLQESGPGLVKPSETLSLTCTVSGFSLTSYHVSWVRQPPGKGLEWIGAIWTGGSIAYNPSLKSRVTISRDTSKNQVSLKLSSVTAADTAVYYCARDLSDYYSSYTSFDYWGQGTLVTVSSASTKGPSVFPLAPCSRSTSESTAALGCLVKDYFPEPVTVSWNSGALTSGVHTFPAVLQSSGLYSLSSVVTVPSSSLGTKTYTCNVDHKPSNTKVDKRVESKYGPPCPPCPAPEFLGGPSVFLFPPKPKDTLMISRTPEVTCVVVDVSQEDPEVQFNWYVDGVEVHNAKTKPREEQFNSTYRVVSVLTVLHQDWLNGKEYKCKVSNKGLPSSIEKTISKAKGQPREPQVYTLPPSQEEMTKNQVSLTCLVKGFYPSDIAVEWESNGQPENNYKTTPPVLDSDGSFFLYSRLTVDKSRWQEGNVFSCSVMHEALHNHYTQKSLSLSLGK
light: B3 light with S56D, M78L
Kd [4]: 1.81 nM | Kd [5]: 1.05 nM | koff [5]: 0.000386 s⁻¹ | Kd [6]: 1.05 nM | EC50 [7]: 0.721 nM | EC50 [8]: 2.39 nM

B6: PI-HX-3017 (antibody, rat IgG1, V domains shown)
VH: EVQLVESGGGLVQPGRSLKFSCSASGFTFSAYSMAWVRQAPKTGLEWVATIIYDGSSTYYRDSVKGRFTISRDNAKNTLYLQMDSLRSEDTATYYCARLGYSGHYFDYWGQGVMVTVSS
VL: DTVLTQSPALAVSLGQRVTISCQASESVSSSLHSYLHWYQQKPGQQPKLLIYRASNLESGVPARFSGSGSGTDFTLNIDPVEADDIATYFCQQSWNDPRTFGGGTKLELK
notes: Rat IgG1 hybridoma antibody; also called PI-3009 (name of the recombinant form)
binding result [1]: no binding | binding result [2]: no binding

B7: PI-3020-AB (antibody, human IgG4, kappa)
heavy: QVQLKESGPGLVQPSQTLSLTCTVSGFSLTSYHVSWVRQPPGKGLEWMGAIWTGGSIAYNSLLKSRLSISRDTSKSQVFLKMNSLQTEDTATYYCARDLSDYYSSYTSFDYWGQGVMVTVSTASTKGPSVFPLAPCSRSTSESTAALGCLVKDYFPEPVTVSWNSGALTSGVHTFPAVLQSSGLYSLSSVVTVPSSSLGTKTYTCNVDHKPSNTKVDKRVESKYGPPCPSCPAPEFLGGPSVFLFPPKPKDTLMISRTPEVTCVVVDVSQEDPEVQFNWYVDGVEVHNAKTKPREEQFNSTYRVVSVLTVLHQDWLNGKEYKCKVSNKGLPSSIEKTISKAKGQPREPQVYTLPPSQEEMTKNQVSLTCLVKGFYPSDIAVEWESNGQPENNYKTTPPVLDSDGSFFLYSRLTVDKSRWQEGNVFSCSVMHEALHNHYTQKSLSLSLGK
light: DIQMTQSPASLSTSLGETVSIECLASEGISNDLAWYQQKSGKSPQLLIYAASRLQDGVPSRFSGSGSGTRYSLKISGMQPEDEADYFCQQSYKYPLTFGSGTKLEIKRTVAAPSVFIFPPSDEQLKSGTASVVCLLNNFYPREAKVQWKVDNALQSGNSQESVTEQDSKDSTYSLSSTLTLSKADYEKHKVYACEVTHQGLSSPVTKSFNRGEC
binding result (hVar3 (RG3036) [9]): no binding
